{"source": "paper PMC5507636", "about": "(Science Advances, 2017)", "target": "Streptococcus pyogenes Cas9 (Streptococcus pyogenes, UniProt Q99ZW2)", "sequence (Q99ZW2 whole entry)": "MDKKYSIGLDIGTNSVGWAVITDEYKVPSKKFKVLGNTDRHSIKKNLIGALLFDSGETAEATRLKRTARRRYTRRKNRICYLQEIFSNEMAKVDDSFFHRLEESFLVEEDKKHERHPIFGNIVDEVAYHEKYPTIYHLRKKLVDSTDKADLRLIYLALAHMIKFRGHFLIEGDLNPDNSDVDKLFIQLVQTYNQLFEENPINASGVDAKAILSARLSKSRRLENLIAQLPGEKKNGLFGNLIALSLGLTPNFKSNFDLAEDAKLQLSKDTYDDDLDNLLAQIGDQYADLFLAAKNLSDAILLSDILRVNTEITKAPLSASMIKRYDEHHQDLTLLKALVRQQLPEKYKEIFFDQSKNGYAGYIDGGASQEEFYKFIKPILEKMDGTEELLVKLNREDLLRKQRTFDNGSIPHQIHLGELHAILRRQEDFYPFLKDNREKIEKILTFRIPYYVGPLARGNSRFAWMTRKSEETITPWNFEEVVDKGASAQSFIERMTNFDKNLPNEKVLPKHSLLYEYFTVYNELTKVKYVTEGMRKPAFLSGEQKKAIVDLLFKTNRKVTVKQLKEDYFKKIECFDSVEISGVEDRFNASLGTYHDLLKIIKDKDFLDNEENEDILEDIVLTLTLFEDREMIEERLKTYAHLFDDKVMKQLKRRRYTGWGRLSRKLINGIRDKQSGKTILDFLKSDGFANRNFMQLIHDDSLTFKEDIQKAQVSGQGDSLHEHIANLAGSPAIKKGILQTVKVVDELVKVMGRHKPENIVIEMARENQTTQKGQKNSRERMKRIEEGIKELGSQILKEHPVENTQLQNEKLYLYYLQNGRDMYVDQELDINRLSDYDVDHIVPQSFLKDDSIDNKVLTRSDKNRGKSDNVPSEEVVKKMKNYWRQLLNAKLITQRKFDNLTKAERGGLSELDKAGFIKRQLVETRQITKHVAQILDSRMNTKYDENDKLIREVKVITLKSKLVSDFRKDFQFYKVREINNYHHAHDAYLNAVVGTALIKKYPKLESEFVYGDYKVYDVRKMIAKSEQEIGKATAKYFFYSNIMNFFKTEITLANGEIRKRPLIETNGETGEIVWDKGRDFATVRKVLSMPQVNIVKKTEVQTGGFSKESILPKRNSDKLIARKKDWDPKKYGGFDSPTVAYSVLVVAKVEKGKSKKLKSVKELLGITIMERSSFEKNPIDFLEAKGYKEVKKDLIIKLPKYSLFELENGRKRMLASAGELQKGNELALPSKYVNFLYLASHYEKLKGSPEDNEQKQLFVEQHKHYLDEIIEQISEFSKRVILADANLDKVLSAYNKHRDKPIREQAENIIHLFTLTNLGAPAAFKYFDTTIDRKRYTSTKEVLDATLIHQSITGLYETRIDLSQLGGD", "assay": "cryo-EM structure"}
{"binder": "anti-CRISPR protein AcrIIA4 (natural protein) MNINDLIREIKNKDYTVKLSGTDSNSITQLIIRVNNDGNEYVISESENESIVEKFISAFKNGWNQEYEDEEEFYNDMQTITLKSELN", "values": [{"measurement": "stoichiometry N", "result": 1}]}
